Columns and labels:
Gls = test: interactome comparison (volcano plot); conditions: CPEB3 and S240-242A expressed in mouse neuroblastoma N2A cells; read off a plot
Wdr77 = test: interactome comparison (volcano plot); conditions: CPEB3 and S240-242A expressed in mouse neuroblastoma N2A cells; read off a plot

other: Log2(Fold Change (Mut/FL)) (Gls): 2.8
other: Log2(Fold Change (Mut/FL)) (Wdr77): -4.2
Substance: CPEB3 (full-length), expressed in mouse neuroblastoma N2A cells (from UniProt Q7TN99) S240A; S241A; S242A

Source: article PMC9964033
